Laboratory results published in US20200024330A1.

Columns and labels:
Test in all cases: cell-based or functional assay
[1] = biological target: HIV-1 APV-17 envelope protein (Env) on pseudovirus (HIV-1)
[2] = biological target: HIV-1 Env of isolate MGRM-D-026 (clade D) (HIV-1)
[3] = biological target: HIV-1 Env of isolate MGRM-G-027 (clade G pseudovirus) (HIV-1)
[4] = biological target: HIV-1 92RW008 envelope glycoprotein (Env) (HIV-1)
[5] = biological target: HIV-1 Env of isolate MGRM-D-012 (clade D) (HIV-1)
[6] = biological target: HIV-1 93IN905 Env (HIV-1)
[7] = biological target: HIV-1 MGRM-A-011 envelope glycoprotein (Env) (HIV-1)
[8] = biological target: HIV-1 Env of isolate MGRM-G-014 (clade G pseudovirus) (HIV-1)
[9] = biological target: HIV-1 MGRM-F1-021 Env (pseudovirus) (HIV-1)
[10] = biological target: HIV-1 IAVI-C18 envelope protein (Env) on pseudovirus (HIV-1)
[11] = biological target: HIV-1 93IN905 envelope glycoprotein (Env) on pseudovirus (HIV-1)
[12] = biological target: HIV-1 94UG103 envelope glycoprotein (Env) on pseudovirus (HIV-1)
[13] = biological target: HIV-1 Env of isolate MGRM-G-025 (clade G pseudovirus) (HIV-1)
[14] = biological target: HIV-1 92RW020 envelope protein (Env) on pseudovirus (HIV-1)
[15] = biological target: HIV-1 94KE105 envelope glycoprotein (Env) (HIV-1)
[16] = biological target: HIV-1 93UG077 envelope glycoprotein (Env) on pseudovirus (HIV-1)
[17] = biological target: HIV-1 MGRM-F1-016 Env (pseudovirus) (HIV-1)
[18] = biological target: HIV-1 MGRM-A-007 envelope glycoprotein (Env) (HIV-1)
[19] = biological target: HIV-1 Env of isolate MGRM-G-006 (subtype G) (HIV-1)
[20] = biological target: HIV-1 MGRM-A-010 envelope glycoprotein (Env) on pseudovirus (HIV-1)
[21] = biological target: HIV-1 Env of isolate 98CN009 (HIV-1)
[22] = biological target: HIV-1 CAAN.A2 Env (pseudovirus) (HIV-1)
[23] = biological target: HIV-1 Env of isolate MGRM-C-023 (pseudovirus) (HIV-1 isolate MGRM-C-023, subtype C)
[24] = biological target: HIV-1 Env of isolate MGRM-C-025 (pseudovirus) (HIV-1 isolate MGRM-C-025, subtype C)
[25] = biological target: HIV-1 MGRM-Chronic-B-024 Env (pseudovirus) (HIV-1)
[26] = biological target: HIV-1 Env of isolate MGRM-C-027 (pseudovirus) (HIV-1 isolate MGRM-C-027, subtype C)
[27] = biological target: HIV-1 TRO.11 Env (pseudovirus) (HIV-1)
[28] = biological target: HIV-1 Env of isolate MGRM-F1-017 (HIV-1)
[29] = biological target: HIV-1 Env of isolate 92UG001 (subtype D) (HIV-1)
[30] = biological target: HIV-1 Env of isolate MGRM-F1-023 (HIV-1)
[31] = biological target: HIV-1 Env of isolate 98CN006 (subtype CRF08 BC) (HIV-1)
[32] = biological target: HIV-1 Env of isolate MG RM-D-020 (subtype D) (HIV-1)
[33] = biological target: HIV-1 92BR020 Env (pseudovirus) (HIV-1)

1443_C16 (PG16) (TCN-116) (antibody), sequence (VH): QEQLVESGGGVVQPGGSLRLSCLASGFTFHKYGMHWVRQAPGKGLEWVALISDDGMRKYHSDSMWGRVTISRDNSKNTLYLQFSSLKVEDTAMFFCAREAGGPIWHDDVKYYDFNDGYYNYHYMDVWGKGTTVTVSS
1443_C16 (PG16) (TCN-116) (antibody), sequence (VL): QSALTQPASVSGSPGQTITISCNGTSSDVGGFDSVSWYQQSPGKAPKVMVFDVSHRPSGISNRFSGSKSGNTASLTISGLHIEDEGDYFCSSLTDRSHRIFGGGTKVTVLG

Substance | neutralization IC50 [1] | IC50 (µg/ml), pseudovirus neutralization [2] | IC50 (µg/ml), pseudovirus neutralization [3] | IC50 (µg/ml), pseudovirus neutralization [4] | IC50 (µg/ml), pseudovirus neutralization [5] | IC50 [6] | IC50 (µg/ml), pseudovirus neutralization [7] | IC50 (µg/ml), pseudovirus neutralization [8] | IC50 (µg/ml), pseudovirus neutralization [9] | neutralization IC50 [10] | IC90 (pseudovirus neutralization) [11] | IC90 (pseudovirus neutralization) [12] | IC50 (µg/ml), pseudovirus neutralization [13] | neutralization IC50 [14] | IC50 (µg/ml), pseudovirus neutralization [15] | IC90 (pseudovirus neutralization) [16] | IC50 (µg/ml), pseudovirus neutralization [17] | IC50 (µg/ml), pseudovirus neutralization [18] | other results
2F5 (antibody) | 2 µg/mL | 4.37 µg/mL | 0.28 µg/mL | 10.4 µg/mL | 1.7 µg/mL | > 50 µg/mL | > 50 µg/mL | 9.65 µg/mL | 1.37 µg/mL | > 50 µg/mL | > 50 µg/mL | 46.6 µg/mL | > 50 µg/mL | 3.37 µg/mL | > 50 µg/mL | 33.4 µg/mL | 21.5 µg/mL | 16.3 µg/mL | 
2G12 (antibody) | > 50 µg/mL | > 50 µg/mL | > 50 µg/mL | 22.5 µg/mL | > 50 µg/mL | > 50 µg/mL | > 50 µg/mL | > 50 µg/mL | 14.1 µg/mL | > 50 µg/mL | > 50 µg/mL | > 50 µg/mL | 31.9 µg/mL | 0.56 µg/mL | 7.22 µg/mL | > 50 µg/mL | > 50 µg/mL | > 50 µg/mL | 
4E10 (antibody) | 5.1 µg/mL | 2.95 µg/mL | 1.19 µg/mL | 14.5 µg/mL | 1.13 µg/mL | 1.26 µg/mL | 2.88 µg/mL | 13.7 µg/mL | 1.87 µg/mL | > 50 µg/mL | 12.8 µg/mL | > 50 µg/mL | 1.7 µg/mL | 3.38 µg/mL | 7.63 µg/mL | > 50 µg/mL | 7.61 µg/mL | 1.82 µg/mL | 
1443_C16 (PG16) (TCN-116) (antibody) | > 50 µg/mL | > 50 µg/mL | 0.01 µg/mL | 0.002 µg/mL | 0.35 µg/mL | 0.25 µg/mL | 0.24 µg/mL | 6.98 µg/mL | > 50 µg/mL | 0.0067 µg/mL | > 50 µg/mL | 1.59 µg/mL | > 50 µg/mL | 0.004 µg/mL | 6.13 µg/mL | > 50 µg/mL | 1.12 µg/mL | 5.91 µg/mL | 
1495_C14 (PGC14) (antibody) | > 50 µg/mL | > 50 µg/mL | > 50 µg/mL | 37 µg/mL | > 50 µg/mL | 19 µg/mL | > 50 µg/mL | > 50 µg/mL | 46 µg/mL | > 50 µg/mL |  |  | > 50 µg/mL | 28.6 µg/mL | > 50 µg/mL |  | > 50 µg/mL | > 50 µg/mL | 
1496_C09 (PG9) (TCN-109) (antibody) | 26.4 µg/mL | 17.5 µg/mL | 0.01 µg/mL | 0.01 µg/mL | 9.31 µg/mL | 0.03 µg/mL |  | 6.32 µg/mL |  | 0.0535 µg/mL | 1.89 µg/mL | 3.37 µg/mL |  | 0.0637 µg/mL | 29.6 µg/mL |  | 0.58 µg/mL | 0.37 µg/mL | neutralization IC50 [19]: 1.98 µg/mL; IC50 (ug/ml), neutralizing activity [20]: 0.0375 µg/mL; IC50 neutralization [20]: 0.0375 µg/mL; IC80, neutralization [20]: 0.121 µg/mL; IC90, neutralization [20]: 0.242 µg/mL; IC95, neutralization [20]: 0.456 µg/mL; IC50 (ug/ml), neutralizing activity [11]: 0.048 µg/mL; IC50 neutralization [11]: 0.048 µg/mL; IC80, neutralization [11]: 0.308 µg/mL; IC90, neutralization [11]: 0.981 µg/mL; IC95, neutralization [11]: 3.31 µg/mL; IC50 (ug/ml), neutralizing activity [12]: 0.31 µg/mL; IC50 neutralization [12]: 0.31 µg/mL; IC80, neutralization [12]: 1.95 µg/mL; IC90, neutralization [12]: 5.54 µg/mL; IC50, pseudovirus neutralization [21]: 0.371 µg/mL
4838_L06 (PGT-121) (antibody) |  |  |  |  |  |  |  |  |  |  |  |  |  |  |  |  |  |  | IC50, pseudovirus neutralization [22]: 0.011 µg/mL; IC50 (µg/mL) neutralization [23]: 0.017 µg/mL; IC50 (µg/mL) neutralization [24]: 46.8 µg/mL; IC50, pseudovirus neutralization [25]: 0.195 µg/mL; IC50 (µg/mL) neutralization [26]: 0.011 µg/mL; IC50, pseudovirus neutralization [27]: 0.008 µg/mL; IC50 [28]: 16.9 µg/mL; IC50 (µg/mL), pseudovirus neutralization [29]: > 50 µg/mL; IC50 [30]: 0.097 µg/mL; IC50 (µg/mL), pseudovirus neutralization [31]: 0.01 µg/mL; IC50 (µg/mL), pseudovirus neutralization [32]: 0.01 µg/mL; neutralization IC80 [33]: 0.0532 µg/mL; neutralization IC90 [33]: 0.101 µg/mL
